Laboratory results from US20080311134A1 (published 2008).

Target: T1, MUC16 polypeptide, endogenous, on OVCAR-3 cells (human, UniProt Q8WXI7 1-14507)
T1 construct: whole, on cells; Highly polymorphic repeat protein; also called CA125; O772P
Experiment: flow cytometry on OVCAR-3 cells, 25-400 ng/mL, anti-human Fc secondary antibody
Protocol: Bound antibody was detected using a fluorescent anti-human Fc secondary antibody.
Antibodies were applied at 25, 50, 100, 200, and 400 ng/mL in PBS+1% FBS+2 mM EDTA. After this incubation, cells were washed and then incubated with phycoerythrein-labeled goat anti-human Fc secondary antibody (one hour on ice). Cells were then washed and analyzed by flow cytometry. […] Even the lowest antibody concentration tested (25 ng or approximately 1×10¹¹ antibodies) provides a molar excess of antibodies over binding sites. Therefore, the concentration at which binding is reduced (as detected by flow cytometry) reflect the affinity of the antibody for MUC16.

B1: A117C thio hu anti-MUC16 3A5 humanized variant (antibody, human IgG1, kappa, V domains shown)
VH: EVQLVESGGGLVQPGGSLRLSCAASGYSITNDYAWNWVRQAPGKGLEWVGYISYSGYTTYNPSLKSRFTISRDTSKNTLYLQMNSLRAEDTAVYYCARWTSGLDYWGQGTLVTVSS
VL: DIQMTQSPSSLSASVGDRVTITCKASDLIHNWLAWYQQKPGKAPKLLIYGATSLETGVPSRFSGSGSGTDFTLTISSLQPEDFATYYCQQYWTTPFTFGQGTKVEIKR
notes: Full-length IgG expressed in CHO cells; Kabat 114, Eu 118; also called thio hu anti-MUC16 HC A117C 3A5; A117C thio hu 3A5
B1: binds.
